The values below come from PMC8408477.

In series [1] the target is T1, GST-RhBBX28 (Rosa hybrida, UniProt A0A8K1NC92 1-241).
T1 sequence: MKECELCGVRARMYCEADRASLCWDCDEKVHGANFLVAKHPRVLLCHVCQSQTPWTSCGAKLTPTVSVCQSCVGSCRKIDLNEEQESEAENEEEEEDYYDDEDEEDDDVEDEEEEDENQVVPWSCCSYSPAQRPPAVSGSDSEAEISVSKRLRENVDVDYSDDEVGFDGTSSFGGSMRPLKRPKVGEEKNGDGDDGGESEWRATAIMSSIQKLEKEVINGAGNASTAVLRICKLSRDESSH
As to the kind of experiment: EMSA. A general note: A gel shift assay detects complexes by their altered migration in electrophoresis.

Series [2] has as its target T2, GST-RhPIF8 (Rosa hybrida, UniProt A0A8K1NC13 1-452).
T2 sequence: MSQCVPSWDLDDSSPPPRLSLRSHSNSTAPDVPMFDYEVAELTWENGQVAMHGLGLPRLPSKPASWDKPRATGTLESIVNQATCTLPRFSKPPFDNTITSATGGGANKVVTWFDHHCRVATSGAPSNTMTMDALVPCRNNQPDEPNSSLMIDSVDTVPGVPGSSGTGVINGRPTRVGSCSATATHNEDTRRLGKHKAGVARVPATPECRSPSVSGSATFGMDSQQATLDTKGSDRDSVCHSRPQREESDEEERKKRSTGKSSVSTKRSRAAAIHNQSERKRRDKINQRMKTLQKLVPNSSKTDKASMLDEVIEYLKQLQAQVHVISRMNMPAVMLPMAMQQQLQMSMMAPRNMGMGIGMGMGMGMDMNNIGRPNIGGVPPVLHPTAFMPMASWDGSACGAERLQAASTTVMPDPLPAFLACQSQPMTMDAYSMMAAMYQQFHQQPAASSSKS
As to the kind of experiment: competition.

For series [3], the target named is T1, GST-RhBBX28. As to the kind of experiment: competition.
In series [4] the target is T1, GST-RhBBX28. As to the kind of experiment: EMSA. The source holds these as a separate data set.
The target in series [5] is T2, GST-RhPIF8. As to the kind of experiment: EMSA.

B1: RhSDH1 probe2 (dsDNA)
DNA 1: AGGTTTTGCAACTAGAAACGTGTTAGAAGAATAATCACAG
DNA 2: CTGTGATTATTCTTCTAACACGTTTCTAGTTGCAAAACCT
With B1, the binding result in the series with GST-RhBBX28 [1] is recorded as “no binding”.

B2: RhBBX28 mProbe (dsDNA)
DNA 1: GCCTAAAAAAAAACCACCATACCACAAAAAACCTGC
DNA 2: GCAGGTTTTTTGTGGTATGGTGGTTTTTTTTTAGGC
On to B2, for which the binding result with GST-RhPIF8 [2] is “no binding”.

B3: RhSDH1 mProbe (dsDNA)
DNA 1: GTCAACTCCTAAAAAATCATGAGTCTTCTATAGGAATCAAAAAAAAACATTCTGCA
DNA 2: TGCAGAATGTTTTTTTTTGATTCCTATAGAAGACTCATGATTTTTTAGGAGTTGAC
With B3, the binding result with GST-RhBBX28 [3] is “no binding”.

B4: RhSDH1 probe (dsDNA)
DNA 1: GTCAACTCCTCACGTTTCATGAGTCTTCTATAGGAATCAACACGTTACATTCTGCA
DNA 2: TGCAGAATGTAACGTGTTGATTCCTATAGAAGACTCATGAAACGTGAGGAGTTGAC
With B4, the binding result with GST-RhBBX28 [4] is recorded as “binds”.

B5: RhBBX28 probe (dsDNA)
DNA 1: GCCTAACACATGGCCACCATACCACCACGACCCTGC
DNA 2: GCAGGGTCGTGGTGGTATGGTGGCCATGTGTTAGGC
In the case of B5, the binding result with GST-RhPIF8 [5] is reported as “binds”.
